This passage reports response results from paper PMC8214733.

Holding throughout (assay): BRET assay (LuTHy system)
Background: BRET reads energy transfer from a luciferase to a nearby fluorophore.

Test [1] addresses C-terminal portion of DYNC1H1 (1000 AA) fused to a proteinA-mCitrine tag (UniProt Q14204). Conditions: parent: est. 0.52; read off a plot.
Test [2] deals with sperm associated antigen 6 (SPAG6), full CDS fused to a proteinA-mCitrine tag (UniProt O75602). Particulars: parent: est. 0.41; read off a plot.
Test [3] deals with C-terminal portion of DYNC1H1 (1000 AA) fused to a proteinA-mCitrine tag, Q14204. Particulars: chain shown with the change;; parent: est. 0.52; read off a plot.
Test [4] deals with T1, sperm associated antigen 6 (SPAG6), full CDS fused to a proteinA-mCitrine tag, O75602.
T1 chain: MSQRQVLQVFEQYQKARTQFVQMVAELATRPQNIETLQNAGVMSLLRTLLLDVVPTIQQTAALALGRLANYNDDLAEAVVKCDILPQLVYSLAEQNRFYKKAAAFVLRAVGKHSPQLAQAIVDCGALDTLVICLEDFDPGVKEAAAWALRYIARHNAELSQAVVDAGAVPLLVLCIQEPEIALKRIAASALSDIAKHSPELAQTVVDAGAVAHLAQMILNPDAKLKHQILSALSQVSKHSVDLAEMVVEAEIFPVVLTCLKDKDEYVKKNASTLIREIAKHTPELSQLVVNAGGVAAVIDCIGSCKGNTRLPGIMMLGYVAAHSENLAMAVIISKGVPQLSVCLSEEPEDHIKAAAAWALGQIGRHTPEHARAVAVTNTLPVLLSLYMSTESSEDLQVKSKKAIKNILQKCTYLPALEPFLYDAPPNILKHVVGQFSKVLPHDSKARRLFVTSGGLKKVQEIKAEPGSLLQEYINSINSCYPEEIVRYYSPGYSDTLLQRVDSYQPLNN
Particulars: chain shown with the change;; parent: est. 0.41; read off a plot.

C-terminal portion of DYNC1H1 (1000 AA) fused to a proteinA-mCitrine tag, Q14204, sequence (Q14204 whole entry, the tested form may be a part): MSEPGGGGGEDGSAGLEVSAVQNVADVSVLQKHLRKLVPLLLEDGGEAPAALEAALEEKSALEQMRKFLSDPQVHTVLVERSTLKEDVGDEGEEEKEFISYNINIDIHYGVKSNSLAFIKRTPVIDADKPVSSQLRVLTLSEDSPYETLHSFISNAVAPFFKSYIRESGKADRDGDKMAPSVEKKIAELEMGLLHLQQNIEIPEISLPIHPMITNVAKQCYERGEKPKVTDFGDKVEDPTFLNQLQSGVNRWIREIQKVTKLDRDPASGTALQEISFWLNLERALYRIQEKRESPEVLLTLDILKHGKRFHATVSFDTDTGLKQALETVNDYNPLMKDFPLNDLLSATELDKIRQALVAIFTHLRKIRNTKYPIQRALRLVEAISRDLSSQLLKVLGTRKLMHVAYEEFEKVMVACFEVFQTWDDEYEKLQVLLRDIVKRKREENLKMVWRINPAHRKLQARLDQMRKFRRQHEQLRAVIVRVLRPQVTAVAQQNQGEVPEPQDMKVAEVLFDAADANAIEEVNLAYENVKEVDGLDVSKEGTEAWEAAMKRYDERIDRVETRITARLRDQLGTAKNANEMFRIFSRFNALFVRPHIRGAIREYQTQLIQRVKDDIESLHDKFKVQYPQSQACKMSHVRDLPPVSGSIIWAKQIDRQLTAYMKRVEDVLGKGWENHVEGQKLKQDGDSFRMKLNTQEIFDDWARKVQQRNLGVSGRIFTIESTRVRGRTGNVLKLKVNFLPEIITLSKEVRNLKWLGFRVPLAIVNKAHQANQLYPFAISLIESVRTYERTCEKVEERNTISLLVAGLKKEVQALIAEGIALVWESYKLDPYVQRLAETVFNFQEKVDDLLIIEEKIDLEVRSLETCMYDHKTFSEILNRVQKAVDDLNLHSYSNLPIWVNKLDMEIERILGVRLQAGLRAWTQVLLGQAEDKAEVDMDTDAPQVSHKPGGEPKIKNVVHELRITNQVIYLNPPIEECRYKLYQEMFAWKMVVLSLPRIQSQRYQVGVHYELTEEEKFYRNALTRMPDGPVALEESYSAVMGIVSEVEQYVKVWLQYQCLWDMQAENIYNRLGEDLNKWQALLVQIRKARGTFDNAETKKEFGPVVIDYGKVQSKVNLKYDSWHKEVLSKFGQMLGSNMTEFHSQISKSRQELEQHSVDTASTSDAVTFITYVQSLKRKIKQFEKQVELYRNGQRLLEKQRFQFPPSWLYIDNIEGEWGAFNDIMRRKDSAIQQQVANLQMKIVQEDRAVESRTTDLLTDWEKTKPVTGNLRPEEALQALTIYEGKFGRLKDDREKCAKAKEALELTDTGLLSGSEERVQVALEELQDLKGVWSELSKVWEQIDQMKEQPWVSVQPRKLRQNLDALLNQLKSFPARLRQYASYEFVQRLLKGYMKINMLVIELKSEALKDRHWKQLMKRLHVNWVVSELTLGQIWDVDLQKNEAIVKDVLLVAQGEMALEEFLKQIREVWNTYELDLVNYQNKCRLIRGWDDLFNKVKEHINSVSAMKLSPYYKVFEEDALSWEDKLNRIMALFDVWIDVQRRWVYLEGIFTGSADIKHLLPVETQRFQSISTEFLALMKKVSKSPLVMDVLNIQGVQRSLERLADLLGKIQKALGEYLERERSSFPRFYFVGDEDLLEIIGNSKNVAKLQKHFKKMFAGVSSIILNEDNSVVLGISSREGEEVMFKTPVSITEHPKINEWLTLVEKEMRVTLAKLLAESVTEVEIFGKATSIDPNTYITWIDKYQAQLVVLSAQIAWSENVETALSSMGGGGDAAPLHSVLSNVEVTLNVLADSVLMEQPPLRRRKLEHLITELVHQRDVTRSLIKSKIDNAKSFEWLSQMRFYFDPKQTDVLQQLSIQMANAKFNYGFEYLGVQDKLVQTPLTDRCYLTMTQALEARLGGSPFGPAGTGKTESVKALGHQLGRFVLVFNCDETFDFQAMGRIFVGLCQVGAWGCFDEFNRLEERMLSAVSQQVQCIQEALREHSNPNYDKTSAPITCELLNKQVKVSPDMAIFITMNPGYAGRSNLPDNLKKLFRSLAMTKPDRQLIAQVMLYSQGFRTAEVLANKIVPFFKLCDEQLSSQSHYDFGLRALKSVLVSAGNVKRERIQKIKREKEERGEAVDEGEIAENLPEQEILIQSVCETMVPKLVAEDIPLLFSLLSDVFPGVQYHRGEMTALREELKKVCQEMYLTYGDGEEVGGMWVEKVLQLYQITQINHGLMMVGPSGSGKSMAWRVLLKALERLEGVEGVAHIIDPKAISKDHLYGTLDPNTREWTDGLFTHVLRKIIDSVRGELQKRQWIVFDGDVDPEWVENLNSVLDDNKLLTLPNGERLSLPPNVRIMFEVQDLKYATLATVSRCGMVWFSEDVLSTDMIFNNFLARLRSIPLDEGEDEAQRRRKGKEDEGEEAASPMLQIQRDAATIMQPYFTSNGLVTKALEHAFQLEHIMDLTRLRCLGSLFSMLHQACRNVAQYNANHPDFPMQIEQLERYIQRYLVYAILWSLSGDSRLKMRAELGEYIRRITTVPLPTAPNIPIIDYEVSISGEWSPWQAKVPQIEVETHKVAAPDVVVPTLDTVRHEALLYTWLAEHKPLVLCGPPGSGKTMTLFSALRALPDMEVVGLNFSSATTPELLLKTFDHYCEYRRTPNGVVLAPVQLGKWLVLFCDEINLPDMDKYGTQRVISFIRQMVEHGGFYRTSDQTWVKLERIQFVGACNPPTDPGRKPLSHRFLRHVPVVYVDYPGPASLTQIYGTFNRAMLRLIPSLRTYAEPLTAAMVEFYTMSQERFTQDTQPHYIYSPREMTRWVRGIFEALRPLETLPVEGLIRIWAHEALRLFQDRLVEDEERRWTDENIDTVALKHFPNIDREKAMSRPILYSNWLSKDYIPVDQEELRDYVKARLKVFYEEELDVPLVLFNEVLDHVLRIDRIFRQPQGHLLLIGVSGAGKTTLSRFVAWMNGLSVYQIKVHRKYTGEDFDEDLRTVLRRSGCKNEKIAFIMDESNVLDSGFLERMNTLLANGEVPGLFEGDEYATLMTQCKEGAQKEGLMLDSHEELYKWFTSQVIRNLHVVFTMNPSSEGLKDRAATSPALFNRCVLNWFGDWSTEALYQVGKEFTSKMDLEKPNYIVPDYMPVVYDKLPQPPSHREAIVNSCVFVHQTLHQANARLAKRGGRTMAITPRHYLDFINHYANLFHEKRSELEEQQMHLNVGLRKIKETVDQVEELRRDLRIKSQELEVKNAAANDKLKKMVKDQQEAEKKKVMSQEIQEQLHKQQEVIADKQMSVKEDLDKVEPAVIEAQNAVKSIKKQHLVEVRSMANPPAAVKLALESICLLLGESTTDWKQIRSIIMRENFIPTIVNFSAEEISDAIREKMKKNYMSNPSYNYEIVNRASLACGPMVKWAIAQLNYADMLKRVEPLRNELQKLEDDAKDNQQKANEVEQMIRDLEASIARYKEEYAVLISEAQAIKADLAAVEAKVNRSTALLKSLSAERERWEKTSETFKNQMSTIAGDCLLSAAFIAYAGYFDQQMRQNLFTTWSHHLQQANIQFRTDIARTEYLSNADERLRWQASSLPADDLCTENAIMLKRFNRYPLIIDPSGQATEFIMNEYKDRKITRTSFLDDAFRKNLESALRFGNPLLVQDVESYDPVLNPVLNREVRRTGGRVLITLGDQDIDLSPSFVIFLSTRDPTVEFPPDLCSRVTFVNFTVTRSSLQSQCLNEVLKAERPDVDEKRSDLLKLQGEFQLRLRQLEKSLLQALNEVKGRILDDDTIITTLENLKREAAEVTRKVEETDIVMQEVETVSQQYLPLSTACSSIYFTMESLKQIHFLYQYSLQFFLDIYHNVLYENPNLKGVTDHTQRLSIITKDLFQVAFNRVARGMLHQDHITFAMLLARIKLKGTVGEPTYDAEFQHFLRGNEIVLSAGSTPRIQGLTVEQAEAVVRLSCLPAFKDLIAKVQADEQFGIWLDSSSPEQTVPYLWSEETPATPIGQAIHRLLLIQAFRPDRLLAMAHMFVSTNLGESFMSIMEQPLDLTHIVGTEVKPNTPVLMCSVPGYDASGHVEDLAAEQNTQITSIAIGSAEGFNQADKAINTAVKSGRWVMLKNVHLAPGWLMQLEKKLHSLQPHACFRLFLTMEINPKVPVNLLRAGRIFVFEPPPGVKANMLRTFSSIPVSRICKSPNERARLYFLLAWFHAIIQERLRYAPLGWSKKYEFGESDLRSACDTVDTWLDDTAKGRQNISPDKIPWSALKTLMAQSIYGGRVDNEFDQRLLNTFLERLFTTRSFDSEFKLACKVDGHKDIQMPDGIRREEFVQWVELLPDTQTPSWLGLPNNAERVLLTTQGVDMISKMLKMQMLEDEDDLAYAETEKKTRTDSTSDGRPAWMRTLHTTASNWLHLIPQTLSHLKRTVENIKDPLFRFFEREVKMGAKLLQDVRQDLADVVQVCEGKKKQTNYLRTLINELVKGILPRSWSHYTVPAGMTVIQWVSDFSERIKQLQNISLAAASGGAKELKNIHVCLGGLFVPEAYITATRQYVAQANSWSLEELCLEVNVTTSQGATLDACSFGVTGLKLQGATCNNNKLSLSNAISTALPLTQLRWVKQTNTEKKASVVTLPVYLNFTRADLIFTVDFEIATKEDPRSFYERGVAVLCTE

As for “coiled-coil domain-containing protein 103 (CCDC103), full-length coding sequence fused to a Nano-luciferase (NL)-Myc tag (from UniProt Q8IW40) p.Ala11Pro”, the response in test [1] is 0.55; in test [2], 0.33.

B1: coiled-coil domain-containing protein 103 (CCDC103), full-length coding sequence fused to a Nano-luciferase (NL)-Myc tag, Q8IW40 p.His154Pro (protein)
chain: MERNDIINFKALEKELQAALTADEKYKRENAAKLRAVEQRVASYEEFRGIVLASHLKPLERKDKMGGKRTVPWNCHTIQGRTFQDVATEISPEKAPLQPETSADFYRDWRRHLPSGPERYQALLQLGGPRLGCLFQTDVGFGLLGELLVALADPVGPADRAAVLGILCSLASTGRFTLNLSLLSRAERESCKGLFQKLQAMGNPRSVKEGLSWEEQGLEEQSGGLQEEERLLQELLELYQVD
For the molecule B1, the response in test [3] worked out at 0.38; in test [4], 0.22.
